# Source: publication PMC6713349, “Structural analysis of the recognition of the -35 promoter element by SigW from Bacillus subtilis”
# T1: SigW sigma4 domain (σW4) (Bacillus subtilis 168, UniProt Q45585 126-187)
# T1 sequence: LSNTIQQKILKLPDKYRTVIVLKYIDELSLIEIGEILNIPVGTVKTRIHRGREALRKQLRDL
# Target: T1, SigW sigma4 domain (σW4)
# Assay: X-ray crystallography (3.1 Å); 1:1 complex, DNA mixed at 1.1:1; printed Kd 1.47e-8 M is computed from PISA ΔG, not measured, so not taken; Complex dialysed in 20 mM HEPES pH 7.5, 0.2 M NaCl, 5% glycerol; crystals from PEG1500 and isopropanol; temperature not stated
# Settings: protein: recombinant; tags: N-terminal 6xHis, removed with TEV protease; 5' overhang 1 nt at each end, 11 bp
binder,measurement,value
-35W (SigW -35 promoter element) (dsDNA) DNA 1: ATTGAAACCTTT DNA 2: AAAAGGTTTCAA,binding result,binds
